The supplement of paper PMC9170038

System: MS2 coat protein
Assay: apparent KD of MS2 coat protein; designed switch direction (-1 OFF switch, 1 ON switch): 1; higher = weaker reporter binding
Summary of the method: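 Designed RNA switches with common flanks were transcribed on Illumina chips by stalled E. coli RNA polymerase and titrated with SNAP-549-labelled MS2 coat protein, from 0.7 or 1.5 nM doubling to 3 µM, in Tris-HCl pH 7.5 buffer with KCl, MgCl2, BSA, DTT, tRNA and Tween-20. Steps lasted 0.8–1.5 h (lowest) to 10–20 min (highest). Titrations ran without input, with 200 uM small-molecule ligand, or with an oligonucleotide input. Normalised cluster fluorescence was curve-fitted, and apparent KD is the per-design median over clusters.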

[1] = input ligand: microRNA oligo, concentration not stated
[2] = Eterna round: R95, input ligand: FMN 200 uM
[3] = Eterna round: R95, input ligand: microRNA oligo, concentration not stated
[4] = Eterna round: R95, input ligand: none

Row | Sequence | apparent KD of MS2 coat protein (input ligand: FMN 200 uM) | apparent KD of MS2 coat protein [1] | apparent KD of MS2 coat protein (input ligand: none) | apparent KD of MS2 coat protein [2] | apparent KD of MS2 coat protein [3] | apparent KD of MS2 coat protein [4]
1 | GCGGAACGGUGUGACAUGAGGAUCACCCAUGUAACCUCAUGUAAGGAUAUCGGGAAGAAGAAAACCGAGAAGGUACGGUGACGC [AK SSNG3-V2-29] (Eterna round: R96, puzzle: Same State NG 3) | 399 nM | 152 nM | 706 nM | – | – | –
2 | GCGGAAUGGUGUGACAUGAGGAUCACCCAUGUAACCUCAUGUAAGGAUAUCGGGAAGAAGAAAACCGAGAAGGUACGGUGACGC [AK SSNG3-V2-28] (Eterna round: R96, puzzle: Same State NG 3) | 197 nM | 145 nM | 165 nM | – | – | –
3 | GCGGAGAGGUAAGGAUAUUCAUGGCAUAGACAUGAGGAUCACCCAUGUAGGAGACGAAUUAGAAGGAAGAAGGUACCGGGACGC [AK SSNG2-V2-18.1] (Eterna round: R96, puzzle: Same State NG 2) | 158 nM | 113 nM | 197 nM | – | – | –
4 | GCUACAUCGAGCGAGGAUAUGCGGCGUAUAACAUGAGGAUCACCCAUGUCCUUCGAAUCGAGUACGCAGAAGGCGCUACGGUAGC [Big Heel] (puzzle: Same State 2) | – | – | – | 77.6 nM | 277 nM | 551 nM
5 | GCUACAUGAGGAUCACCCAUGUGUGUGUGGGAGUGAGUGGCUUAGGAUAUCUAUGAUUUUAGUUGAGAGAAGGAGGAUUGCUGU [SS-NG3-LRO09] (Eterna round: R96, puzzle: Same State NG 3) | 471 nM | 317 nM | 336 nM | – | – | –
6 | GCUACCAUUGAAGCCAACAUGAGGAUCACCCAUGUAUGUUGGCAGGAUAUCGAUUGCAAAGCGAUCGAGAAGGGCUAAGGUAGC [Mat - Same State NG 3 - JL Mod - D86] (Eterna round: R96, puzzle: Same State NG 3) | 92.2 nM | 62.8 nM | 117 nM | – | – | –
7 | GCUAGAAUAAAUGCUAACAUGAGGAUCACCCAUGUAUGUUGGCAGGAUAUCGUUUGCAAAGCAAACGAGAAGGGCCAUACUAGC [Mat - Same State NG 3 - JL Mod - D26] (Eterna round: R96, puzzle: Same State NG 3) | 23.1 nM | 26.3 nM | 38.1 nM | – | – | –
8 | GCUAGAAUUAAAGCCAACAUGAGGAUCACCCAUGUAUGUUGGUAGGAUAUCGUUUGCAAAGCAAACGAGAAGGGCUAAUCUAGC [Mat - Same State NG 3 - JL Mod - D64] (Eterna round: R96, puzzle: Same State NG 3) | 87 nM | 48.2 nM | 80.2 nM | – | – | –
9 | GCUAGGAAUUAAGCCAACAUGAGGAUCACCCAUGUAUGUUGGUAGGAUAUCGUUUGCAAAGCAAACGAGAAGGGCUAACCUAGC [Mat - Same State NG 3 - JL Mod - D72] (Eterna round: R96, puzzle: Same State NG 3) | 80.9 nM | 55.8 nM | 85.3 nM | – | – | –
10 | GCUAGUAAAAUUGUCAACAUGAGGAUCACCCAUGUAUGUUGGCAGGAUAUCGUUUGCAAAGCAAACGAGAAGGGCUAAACUAGC [Mat - Same State NG 3 - JL Mod - D12] (Eterna round: R96, puzzle: Same State NG 3) | 58.2 nM | 186 nM | 171 nM | – | – | –
11 | GCUCGACGUGUUGUCUACAUGAGGAUCACCCAUGUAGGUGCGGAGGAUAUCUACGUGCUUUAUGUAGAGAAGGUCGUGUCGAGC [SameState NG3 #87] (Eterna round: R96, puzzle: Same State NG 3) | 32.4 nM | 55.3 nM | 66.4 nM | – | – | –
12 | GCUCGAUGAAUGUCCUACAUGAGGAUCACCCAUGUUCGUGGGCAGGAUAUUUACAUGCAGAGUGUAGAGAAGGGCCCAUCGAGC [SameState NG3 #63] (Eterna round: R96, puzzle: Same State NG 3) | 43.4 nM | 63.7 nM | 85.1 nM | – | – | –
13 | GCUCGAUGUGCUGUUUACAUGAGGAUCACCCAUGUAGAUGCGGAGGAUAUCUACGUGCUUUAUGUAGAGAAGGCCGUAUCGAGC [SameState NG3 #82] (Eterna round: R96, puzzle: Same State NG 3) | 15 nM | 25.4 nM | 35.1 nM | – | – | –
14 | GCUCGCACGAUGACCCACAUGAGGAUCACCCAUGUGCUUGGGCAGGAUAUCUAGAUUAAGGAUGUAGAGAAGGGUCGAGCGAGC [SameState NG3 #28] (Eterna round: R96, puzzle: Same State NG 3) | 303 nM | 69.6 nM | 243 nM | – | – | –
15 | GCUCGGCUGAUGGCCUACAUGAGGAUCACCCAUGUGAGUGGGCAGGAUAUCUAGAUUAAGGAUGUAGAGAAGGGCCUGCCGAGC [SameState NG3 #37] (Eterna round: R96, puzzle: Same State NG 3) | 708 nM | 131 nM | 496 nM | – | – | –
16 | GCUCGUAUCACAACCAACAUGAGGAUCACCCAUGUAUGUUGGUAGGAUAUCUAUAUUAAGGAUAUAGAGAAGGGCCGAACGAGC [SameState NG3 #12] (Eterna round: R96, puzzle: Same State NG 3) | 53.7 nM | 59.7 nM | 82.3 nM | – | – | –
17 | GCUGCAAGGGCAGGAUAUGGGUUCAGAGCGGAAGUGCGCUUUGAUACAUGAGGAUCACCCAUGUCCCAGAAGGGCCCAUGCGGC [Arredibi] (Eterna round: R96, puzzle: Same State NG 2) | 19.1 nM | 78.4 nM | 113 nM | – | – | –
18 | GCUUCACAUGAGGAUCACCCAUGUCUUCGGAGUCGAGGAUAUGGUAACUGUAAACAGUUGCCAGAAGGCGAGGAGC [SS1 - Son of Teenbexe v9] (Eterna round: R96, puzzle: Same State 1) | 48.8 nM | 55.3 nM | 66 nM | – | – | –
19 | GCUUCACAUGAGGAUCACCCAUGUCUUCGGAGUCGAGGAUAUGGUAACUGUAAACAGUUGCCAGAAGGCGAGGAGC [SS1 - Son of Teenbexe v9] (puzzle: Same State 1) | – | – | – | – | 54.6 nM | –
20 | GGAAUAUUCACAGGAUAUGAGUUGUAAAGUGGAUCAGAAGGGUGGGUGUUUUGCACGGUGUGUUACAUGAGGAUCACCCAUGUU [SameState NG1 #23] (Eterna round: R96, puzzle: Same State NG 1) | 82.4 nM | 241 nM | 418 nM | – | – | –
21 | GGAAUAUUUACAGGAUAUGAGUUGUAAAGUCGAUCAGAAGGGUAGAUGUCUUACACGGUGUGUUACAUGAGGAUCACCCAUGUU [SameState NG1 #19] (Eterna round: R96, puzzle: Same State NG 1) | 169 nM | 160 nM | 218 nM | – | – | –
22 | GGAAUAUUUACAGGAUAUGAUUUGUAAAUUCGAUCAGAAGGGUGGAUGUCUUACACGGUUUGUUACAUGAGGAUCACCCAUGUC [SameState NG1 #12] (Eterna round: R96, puzzle: Same State NG 1) | 452 nM | 253 nM | 376 nM | – | – | –
23 | GGACGUCAUCUCAAUAAUUAAACAUGAGGAUCACCCAUGUCACAGGAUAUGGAUCCUAAUUGGAUCCAGAAGGGUGUGACGUCC [Fiskers NG3ss - 40] (Eterna round: R96, puzzle: Same State NG 3) | 54.3 nM | 56 nM | 66.1 nM | – | – | –
24 | GGACGUCGAUCUCCUACUUAAACAUGAGGAUCACCCAUGUCACAGGAUAUGAGUCCGAUUAGGACUCAGAAGGGUGCGACGUCC [Fiskers NG3ss - 51] (Eterna round: R96, puzzle: Same State NG 3) | 14 nM | 12.3 nM | 18.6 nM | – | – | –
25 | GGAGCCAAGGCAGGAUAUUCAUAUAAAUAAACAUGAGGAUCACCCAUGUAGGCCAGAAGGCCUUGGGAGAAGGGCCAUGGCUCG [Xeonanis - 13 mod6] (Eterna round: R96, puzzle: Same State NG 2) | 19.4 nM | 69.8 nM | 121 nM | – | – | –
26 | GGAGCCAGCACCGAGGAUAUUCAUAUUAAAACAUGAGGAUCACCCAUGUAGGCCAGAAGGCCUUGGGAGAAGGCGGACUGGCUCG [Xeonanis - 11] (Eterna round: R96, puzzle: Same State 2) | 18.8 nM | 212 nM | 364 nM | – | – | –
27 | GGAGCCAGCACCGAGGAUAUUCAUAUUAAAACAUGAGGAUCACCCAUGUAGGCCAGAAGGCCUUGGGAGAAGGCGGACUGGCUCG [Xeonanis - 11] (puzzle: Same State 2) | – | – | – | 28.5 nM | 221 nM | 976 nM
28 | GGAGCCGGCACUGAGGAUAUUCAUAUUAAAACAUGAGGAUCACCCAUGUAGGCCAGAAGGCCUUGGGAGAAGGCAGGCCGGCCCG [Bibimoar - 1] (puzzle: Same State 2) | – | – | – | 18.8 nM | 177 nM | 276 nM
29 | GGAGCCGGCACUGAGGAUAUUCAUAUUAAAACAUGAGGAUCACCCAUGUAGGCCAGAAGGCCUUGGGAGAAGGCAGGUCGGCUCG [Arinin] (Eterna round: R96, puzzle: Same State 2) | 20 nM | 188 nM | 283 nM | – | – | –
30 | GGAGCCGGCACUGAGGAUAUUCAUAUUAAAACAUGAGGAUCACCCAUGUAGGCCAGAAGGCCUUGGGAGAAGGCAGGUCGGCUCG [salish99_ss2_r3_075] (Eterna round: R96, puzzle: Same State 2) | 20 nM | 188 nM | 283 nM | – | – | –
